Sequences and labels used below:
B1: Protein REG2 (Saccharomyces cerevisiae), P38232 (parent)
chain: MTLSNCDSLDNLFQDPPEEEESSKFVEAVRTLMNRNDMGYPPAAANGTYCLKKIKSLNAKQWKINKKRMCMLPAVKKKNFDFHEQRSLILNLNLWKFIKFINCSSKNNYNKNNKHVRSSNNTVKNENVLPLQKHKKVDNDQRLENLFWRSWFKARKRRDIMGKPRERHIKFNDNVEQCIITDEHFIQRLPSTRLNSTDEQRPCSKSELDPCIGNAASKRSFYDYNSVYVASDAIITTAAATAIISSNSGDYQRGHDVRDVPRNVLLQAGETDFSSVLRVDSDLKLSNISHHSPVKPSSTSSHSTFIFESETDTDTDTDAETENDIDAYIDTSIPNLLL
partner: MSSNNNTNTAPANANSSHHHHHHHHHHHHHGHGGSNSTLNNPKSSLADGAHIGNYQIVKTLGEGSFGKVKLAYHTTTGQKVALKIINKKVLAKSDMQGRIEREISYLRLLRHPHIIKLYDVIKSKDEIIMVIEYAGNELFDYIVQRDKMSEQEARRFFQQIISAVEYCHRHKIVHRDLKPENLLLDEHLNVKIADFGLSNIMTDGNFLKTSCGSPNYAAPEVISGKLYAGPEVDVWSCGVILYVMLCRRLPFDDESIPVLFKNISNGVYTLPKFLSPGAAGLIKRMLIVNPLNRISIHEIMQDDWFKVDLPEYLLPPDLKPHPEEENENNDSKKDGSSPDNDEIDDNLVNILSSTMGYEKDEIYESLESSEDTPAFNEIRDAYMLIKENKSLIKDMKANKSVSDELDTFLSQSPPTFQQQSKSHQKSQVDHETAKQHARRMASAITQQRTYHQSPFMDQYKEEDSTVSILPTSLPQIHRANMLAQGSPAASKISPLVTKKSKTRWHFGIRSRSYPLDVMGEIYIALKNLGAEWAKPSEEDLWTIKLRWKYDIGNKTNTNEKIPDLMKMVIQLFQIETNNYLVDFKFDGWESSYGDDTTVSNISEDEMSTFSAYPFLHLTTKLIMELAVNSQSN
B2: Protein REG2 (Saccharomyces cerevisiae), P38232 (parent)
chain: B1 chain
B3: Carbon catabolite-derepressing protein kinase (Saccharomyces cerevisiae), P06782 (parent)
chain: B1 partner
partner: B1 chain

Variants of B1 are the subject of one experiment. To be noted: with snf1_yeast SNF1, P06782.
In the case of MTLSNCDSLDNLFQDPPEEEESSKFVEAVRTLMNRNDMGYPPAAANGTYCLKKIKSLNAKQWKINKKRMCMLPAVKKKNFDFHEQRSLILNLNLWKFIKFINCSSKNNYNKNNKHVRSSNNTVKNENVLPLQKHKKVDNDQRLENLFWRSWFKARKRRDIMGKPRERHMKANDNVEQCIITDEHFIQRLPSTRLNSTDEQRPCSKSELDPCIGNAASKRSFYDYNSVYVASDAIITTAAATAIISSNSGDYQRGHDVRDVPRNVLLQAGETDFSSVLRVDSDLKLSNISHHSPVKPSSTSSHSTFIFESETDTDTDTDAETENDIDAYIDTSIPNLLL [I169M;F171A], the “effect of a mutation on the interaction” value is on record as “with no effect”.

A further experiment covers variants of B2. To be noted: with pp12_yeast GLC7, P32598.
pp12_yeast GLC7, P32598, sequence (P32598 whole entry): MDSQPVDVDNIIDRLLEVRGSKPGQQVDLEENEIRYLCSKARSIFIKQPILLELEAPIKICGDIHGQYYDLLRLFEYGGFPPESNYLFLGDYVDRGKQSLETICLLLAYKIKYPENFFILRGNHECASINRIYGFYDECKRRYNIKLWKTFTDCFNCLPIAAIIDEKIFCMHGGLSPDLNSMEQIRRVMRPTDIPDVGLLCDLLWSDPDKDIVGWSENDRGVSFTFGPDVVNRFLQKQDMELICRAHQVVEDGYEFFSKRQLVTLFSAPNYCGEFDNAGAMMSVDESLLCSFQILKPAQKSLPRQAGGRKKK
Regarding MTLSNCDSLDNLFQDPPEEEESSKFVEAVRTLMNRNDMGYPPAAANGTYCLKKIKSLNAKQWKINKKRMCMLPAVKKKNFDFHEQRSLILNLNLWKFIKFINCSSKNNYNKNNKHVRSSNNTVKNENVLPLQKHKKVDNDQRLENLFWRSWFKARKRRDIMGKPRERHMKANDNVEQCIITDEHFIQRLPSTRLNSTDEQRPCSKSELDPCIGNAASKRSFYDYNSVYVASDAIITTAAATAIISSNSGDYQRGHDVRDVPRNVLLQAGETDFSSVLRVDSDLKLSNISHHSPVKPSSTSSHSTFIFESETDTDTDTDAETENDIDAYIDTSIPNLLL [I169M;F171A], the “effect of a mutation on the interaction” value was “disrupting interaction strength”.

The variants in a further experiment derive from B3. As to conditions: with reg2_yeast REG2, P38232.
Take T210A: the “effect of a mutation on the interaction” value is “disrupting interaction strength”.

Turning to K84R, the “effect of a mutation on the interaction” value is on record as “decreasing interaction strength”.

Source of the values: IntAct's records for PubMed 27107116.
